Measured values published in the Human Domainome abundance scans (Beltran et al. 2025).
± gives the uncertainty stated by the source.

B1: E3 ubiquitin-protein ligase TRIM36, residues 208 to 252; numbered along this chain, Q9NQ86 (parent)
chain: KILMCPEHETERINMYCELCRRPVCHLCKLGGNHANHRVTTMSSA

Variants of: B1
Assay: abundance fitness (aPCA) (normalised: wild type 0, dead -1); higher = more abundant; growth selection in yeast, the domain comes from the species named
Conditions: Homo sapiens

Abundance fitness, by site and new letter:
K1: T -0.157 ± 0.065; H -0.283 ± 0.14; G -0.273 ± 0.058; M -0.277 ± 0.073
H8: A -0.951 ± 0.065; D -0.858 ± 0.089; Y -0.983 ± 0.15; R -0.841 ± 0.059; N -0.819 ± 0.089; S -0.786 ± 0.068; C -0.611 ± 0.076; K -0.638 ± 0.065; M -1.4 ± 0.22; G -0.766 ± 0.055; F -0.795 ± 0.34; T -0.72 ± 0.075; W -1.6 ± 0.2; Q -0.716 ± 0.073; V -1.13 ± 0.073; L -1.24 ± 0.08
M4: N -0.101 ± 0.13; E -0.173 ± 0.061; K -0.054 ± 0.057; S -0.203 ± 0.049; F 0.188 ± 0.12; V -0.077 ± 0.065; Y 0.031 ± 0.055; D -0.189 ± 0.058; C -0.075 ± 0.076; L -0.187 ± 0.062; P -0.288 ± 0.056; T -0.072 ± 0.067; R -0.165 ± 0.044; W -0.191 ± 0.062; I -0.063 ± 0.081; H -0.133 ± 0.057; G -0.238 ± 0.046; Q -0.181 ± 0.059
C5: Y -1 ± 0.1; T -0.703 ± 0.062; Q -0.996 ± 0.082; E -0.655 ± 0.093; K -0.688 ± 0.074; D -0.536 ± 0.092; M -1.02 ± 0.12; S -0.765 ± 0.053; N -0.84 ± 0.088; P -1.06 ± 0.076; R -0.976 ± 0.062; I -1.14 ± 0.11; H -0.873 ± 0.097; G -0.744 ± 0.052; L -0.929 ± 0.064; A -0.82 ± 0.062; F -1.08 ± 0.16; V -0.907 ± 0.077; W -1.41 ± 0.15
T10: Q 0.021 ± 0.067; G -0.071 ± 0.045; D -0.132 ± 0.087; L -0.142 ± 0.058; W -0.273 ± 0.06; H -0.039 ± 0.07; V -0.161 ± 0.059; K 0.041 ± 0.057; C -0.06 ± 0.088; P -0.015 ± 0.082; Y -0.171 ± 0.082; E -0.049 ± 0.064; R -0.039 ± 0.049; A -0.12 ± 0.053; F -0.337 ± 0.11; N -0.282 ± 0.17; M -0.038 ± 0.069; S -0.078 ± 0.057
N14: L 0.036 ± 0.083; S -0.041 ± 0.088; T 0.172 ± 0.1; R -0.149 ± 0.071; H 0.055 ± 0.11; Y -0.065 ± 0.13; E 0.048 ± 0.095; M 0.073 ± 0.1; G -0.152 ± 0.076; K 0.036 ± 0.068; Q 0.018 ± 0.06; D -0.13 ± 0.35; C 0.106 ± 0.1; A -0.037 ± 0.077; W -0.224 ± 0.072; V 0.034 ± 0.16; P -0.195 ± 0.12; F 0.08 ± 0.1
M15: Q -0.285 ± 0.23; T -0.08 ± 0.1; R -0.329 ± 0.35; V -0.309 ± 0.27; A -0.166 ± 0.18; E -0.024 ± 0.13; C 0.12 ± 0.18
R12: P 0.186 ± 0.12; E -0.016 ± 0.098; L -0.034 ± 0.071; D -0.539 ± 0.18; S -0.38 ± 0.26; G -0.057 ± 0.061; I -0.14 ± 0.079; K -0.365 ± 0.28; A -0.258 ± 0.12; W -0.269 ± 0.083
I13: P 0.166 ± 0.14; R -0.143 ± 0.12; W -0.035 ± 0.15; A -0.015 ± 0.078; G 0.145 ± 0.12; M 0.049 ± 0.31; L 0.032 ± 0.1
I2: Y -0.532 ± 0.29; K -0.234 ± 0.073; R -0.243 ± 0.055; T -0.097 ± 0.056; P -0.386 ± 0.068; N 0.011 ± 0.067; S -0.19 ± 0.066; F -0.001 ± 0.12; V -0.157 ± 0.066; H -0.139 ± 0.06; D 0.012 ± 0.077; W -0.405 ± 0.062; E -0.042 ± 0.049; A -0.165 ± 0.047; L -0.083 ± 0.059; G -0.115 ± 0.048; M -0.068 ± 0.062; C -0.345 ± 0.11
E9: K 0.079 ± 0.067; Y -0.076 ± 0.12; P 0.075 ± 0.061; I -0.042 ± 0.069; N -0.052 ± 0.088; D 0.008 ± 0.075; S 0.07 ± 0.057; L -0.04 ± 0.052; G 0.008 ± 0.045; A -0.043 ± 0.053; V -0.051 ± 0.052; R -0.072 ± 0.044; T 0.053 ± 0.053; H -0.069 ± 0.099; C -0.074 ± 0.061; Q -0.062 ± 0.073; M -0.099 ± 0.065
E7: C -0.209 ± 0.067; A -0.064 ± 0.056; K -0.085 ± 0.06; T -0.042 ± 0.062; G -0.292 ± 0.055; H 0.01 ± 0.13; N -0.169 ± 0.099; W -0.315 ± 0.065; R -0.104 ± 0.045; V -0.011 ± 0.064; S -0.103 ± 0.056; F -0.129 ± 0.071; L -0.127 ± 0.055; P -0.783 ± 0.086; Q -0.041 ± 0.058
